# From patent US20250333441A1, “POLYPEPTIDE INHIBITORS AND USES THEREOF” (Neuracle Science Co., Ltd., priority 2021, published 2025)
# B1: LRRC4B (364-576): LRRC4B deletion construct, amino acids 364-576 of SEQ ID NO: 2 (SEQ ID NO: 61) (protein)
# chain: PVIVEPPTDLNVTEGMAAELKCRTGTSMTSVNWLTPNGTLMTHGSYRVRISVLHDGTLNFTNVTVQDTGQYTCMVTNSAGNTTASATLNVSAVDPVAAGGTGSGGGGPGGSGGVGGGSGGYTYFTTVTVETLETQPGEEALQPRGTEKEPPGPTTDGVWGGGRPGDAAGPASSSTTAPAPRSSRPTEKAFTVPITDVTENALKDLDDVMKTTK
# B2: LRRC4B (230-713): FLAG-tagged LRRC4B deletion construct, amino acids 230-713 of SEQ ID NO: 2 (SEQ ID NO: 54) (protein)
# chain: RLEELELSGNRLDLIRPGSFQGLTSLRKLWLMHAQVATIERNAFDDLKSLEELNLSHNNLMSLPHDLFTPLHRLERVHLNHNPWHCNCDVLWLSWWLKETVPSNTTCCARCHAPAGLKGRYIGELDQSHFTCYAPVIVEPPTDLNVTEGMAAELKCRTGTSMTSVNWLTPNGTLMTHGSYRVRISVLHDGTLNFTNVTVQDTGQYTCMVTNSAGNTTASATLNVSAVDPVAAGGTGSGGGGPGGSGGVGGGSGGYTYFTTVTVETLETQPGEEALQPRGTEKEPPGPTTDGVWGGGRPGDAAGPASSSTTAPAPRSSRPTEKAFTVPITDVTENALKDLDDVMKTTKIIIGCFVAITFMAAVMLVAFYKLRKQHQLHKHHGPTRTVEIINVEDELPAASAVSVAAAAAVASGGGVGGDSHLALPALERDHLNHHHYVAAAFKAHYSSNPSGGGCGGKGPPGLNSIHEPLLFKSGSKENVQETQI
# modifications: FLAG tag
# B3: LRRC4B (453-713): FLAG-tagged LRRC4B deletion construct, amino acids 453-713 of SEQ ID NO: 2 (SEQ ID NO: 56) (protein)
# chain: VSAVDPVAAGGTGSGGGGPGGSGGVGGGSGGYTYFTTVTVETLETQPGEEALQPRGTEKEPPGPTTDGVWGGGRPGDAAGPASSSTTAPAPRSSRPTEKAFTVPITDVTENALKDLDDVMKTTKIIIGCFVAITFMAAVMLVAFYKLRKQHQLHKHHGPTRTVEIINVEDELPAASAVSVAAAAAVASGGGVGGDSHLALPALERDHLNHHHYVAAAFKAHYSSNPSGGGCGGKGPPGLNSIHEPLLFKSGSKENVQETQI
# modifications: FLAG tag
# B4: LRRC4B (157-713): FLAG-tagged LRRC4B deletion construct, amino acids 157-713 of SEQ ID NO: 2 (SEQ ID NO: 53) (protein)
# chain: LSKLRELWLRNNPIESIPSYAFNRVPSLRRLDLGELKRLEYISEAAFEGLVNLRYLNLGMCNLKDIPNLTALVRLEELELSGNRLDLIRPGSFQGLTSLRKLWLMHAQVATIERNAFDDLKSLEELNLSHNNLMSLPHDLFTPLHRLERVHLNHNPWHCNCDVLWLSWWLKETVPSNTTCCARCHAPAGLKGRYIGELDQSHFTCYAPVIVEPPTDLNVTEGMAAELKCRTGTSMTSVNWLTPNGTLMTHGSYRVRISVLHDGTLNFTNVTVQDTGQYTCMVTNSAGNTTASATLNVSAVDPVAAGGTGSGGGGPGGSGGVGGGSGGYTYFTTVTVETLETQPGEEALQPRGTEKEPPGPTTDGVWGGGRPGDAAGPASSSTTAPAPRSSRPTEKAFTVPITDVTENALKDLDDVMKTTKIIIGCFVAITFMAAVMLVAFYKLRKQHQLHKHHGPTRTVEIINVEDELPAASAVSVAAAAAVASGGGVGGDSHLALPALERDHLNHHHYVAAAFKAHYSSNPSGGGCGGKGPPGLNSIHEPLLFKSGSKENVQETQI
# modifications: FLAG tag
# B5: LRRC4B (36-713): FLAG-tagged LRRC4B deletion construct, amino acids 36-713 of SEQ ID NO: 2 (SEQ ID NO: 52) (protein)
# chain: AGGGGVAVTSAAGGGSPPATSCPVACSCSNQASRVICTRRDLAEVPASIPVNTRYLNLQENGIQVIRTDTFKHLRHLEILQLSKNLVRKIEVGAFNGLPSLNTLELFDNRLTTVPTQAFEYLSKLRELWLRNNPIESIPSYAFNRVPSLRRLDLGELKRLEYISEAAFEGLVNLRYLNLGMCNLKDIPNLTALVRLEELELSGNRLDLIRPGSFQGLTSLRKLWLMHAQVATIERNAFDDLKSLEELNLSHNNLMSLPHDLFTPLHRLERVHLNHNPWHCNCDVLWLSWWLKETVPSNTTCCARCHAPAGLKGRYIGELDQSHFTCYAPVIVEPPTDLNVTEGMAAELKCRTGTSMTSVNWLTPNGTLMTHGSYRVRISVLHDGTLNFTNVTVQDTGQYTCMVTNSAGNTTASATLNVSAVDPVAAGGTGSGGGGPGGSGGVGGGSGGYTYFTTVTVETLETQPGEEALQPRGTEKEPPGPTTDGVWGGGRPGDAAGPASSSTTAPAPRSSRPTEKAFTVPITDVTENALKDLDDVMKTTKIIIGCFVAITFMAAVMLVAFYKLRKQHQLHKHHGPTRTVEIINVEDELPAASAVSVAAAAAVASGGGVGGDSHLALPALERDHLNHHHYVAAAFKAHYSSNPSGGGCGGKGPPGLNSIHEPLLFKSGSKENVQETQI
# modifications: FLAG tag
# B6: LRRC4B (36-576): full-length ectodomain of LRRC4B protein, amino acids 36-576 of SEQ ID NO: 2 (SEQ ID NO: 5) (protein)
# chain: AGGGGVAVTSAAGGGSPPATSCPVACSCSNQASRVICTRRDLAEVPASIPVNTRYLNLQENGIQVIRTDTFKHLRHLEILQLSKNLVRKIEVGAFNGLPSLNTLELFDNRLTTVPTQAFEYLSKLRELWLRNNPIESIPSYAFNRVPSLRRLDLGELKRLEYISEAAFEGLVNLRYLNLGMCNLKDIPNLTALVRLEELELSGNRLDLIRPGSFQGLTSLRKLWLMHAQVATIERNAFDDLKSLEELNLSHNNLMSLPHDLFTPLHRLERVHLNHNPWHCNCDVLWLSWWLKETVPSNTTCCARCHAPAGLKGRYIGELDQSHFTCYAPVIVEPPTDLNVTEGMAAELKCRTGTSMTSVNWLTPNGTLMTHGSYRVRISVLHDGTLNFTNVTVQDTGQYTCMVTNSAGNTTASATLNVSAVDPVAAGGTGSGGGGPGGSGGVGGGSGGYTYFTTVTVETLETQPGEEALQPRGTEKEPPGPTTDGVWGGGRPGDAAGPASSSTTAPAPRSSRPTEKAFTVPITDVTENALKDLDDVMKTTK
# B7: LRRC4B (364-713): FLAG-tagged LRRC4B deletion construct, amino acids 364-713 of SEQ ID NO: 2 (SEQ ID NO: 55) (protein)
# chain: PVIVEPPTDLNVTEGMAAELKCRTGTSMTSVNWLTPNGTLMTHGSYRVRISVLHDGTLNFTNVTVQDTGQYTCMVTNSAGNTTASATLNVSAVDPVAAGGTGSGGGGPGGSGGVGGGSGGYTYFTTVTVETLETQPGEEALQPRGTEKEPPGPTTDGVWGGGRPGDAAGPASSSTTAPAPRSSRPTEKAFTVPITDVTENALKDLDDVMKTTKIIIGCFVAITFMAAVMLVAFYKLRKQHQLHKHHGPTRTVEIINVEDELPAASAVSVAAAAAVASGGGVGGDSHLALPALERDHLNHHHYVAAAFKAHYSSNPSGGGCGGKGPPGLNSIHEPLLFKSGSKENVQETQI
# modifications: FLAG tag
# Target: FAM19A5 protein (Homo sapiens, UniProt Q7Z5A7)
# Assay: Co-immunoprecipitation of FLAG-tagged LRRC4 family constructs with recombinant FAM19A5 in HEK293 cells
# Assay type: binding
# Conditions: HEK293 cells expressing FLAG-tagged construct, recombinant FAM19A5 protein (1 μM) 30 minutes; anti-FLAG immunoprecipitation
# Description: To better understand the interaction between FAM19A5 and members of the LRRC4 protein family, HEK293 cells were modified to express a FLAG-tagged member of the LRRC4 protein family, i.e., LRRC4C protein, LRRC4 protein, or LRRC4B protein. Then, the HEK293 cells or primary cortical neurons were treated with recombinant FAM19A5 protein (1 μM) for 30 minutes, and the binding between FAM19A5 protein and the different members of the LRRC4 protein family was assessed using both co-immunoprecipitation and immunofluorescence assays.
# For the co-immunoprecipitation assay, cell lysates from the different FAM19A5-treated HEK293 cells were collected and immunoprecipitated with an anti-FLAG antibody, anti-FAM19A5 (1-65) antibody, or a human IgG antibody (control). Immunoprecipitated proteins were immunoblotted with anti-FLAG and anti-FAM19A5 (3-2) antibodies. For the immunofluorescence assay, the HEK293 cells treated with the recombinant FAM19A5 protein were immunostained with anti-FAM19A5 (3-2) (to detect FAM19A5 protein expression) and anti-FLAG antibodies (to detect member of the LRRC4 protein family). The primary cortical neurons treated with the recombinant FAM19A5 protein were immunostained with anti-FAM19A5 (3-2) and anti-LRRC4B antibodies. The nuclei were stained with Hoechst33342 (blue).
# To determine the specific motif or domain of the LRRC4B protein that is responsible for the binding to a FAM19A5 protein, various FLAG-tagged LRRC4B deletion constructs were generated (see Table 6 below). HEK293 cells were transfected with the different deletion constructs and then treated with recombinant FAM19A5 protein as described in Example 1. Then, the cell lysates from the different HEK293 cells were immunoprecipitated with the anti-FLAG antibody. The immunoprecipitated proteins were immunoblotted with anti-FLAG and anti-FAM19A5 (3-2) antibodies.
# As described in Example 2, all members of the LRRC4 protein family were capable of binding to FAM19A5 protein to varying degrees. Therefore, to compare the bindings domains, the amino acid sequences of the LRRC4B, LRRC4, and LRRC4C proteins were aligned. […] Therefore, to assess whether the corresponding positions of LRRC4 and LRRC4C were important in the binding of these proteins to FAM19A5 protein, cDNAs encoding either (i) LRRC4C protein fragment (amino acids 354-527 of SEQ ID NO: 3; SEQ ID NO: 66) or (ii) LRRC4 protein fragment (amino acids 353-527 of SEQ ID NO: 1; SEQ ID NO: 67) were constructed (see Table 7). HEK293 cells were transfected to express either of the protein fragments and then treated with recombinant FAM19A5 protein as described in Example 1. Then, the cell lysates from the different HEK293 cells were immunoprecipitated with the anti-FLAG antibody. The immunoprecipitated proteins were immunoblotted with anti-FLAG and anti-FAM19A5 (3-2) antibodies.
# Sequence of FAM19A5 protein (Q7Z5A7 44-132): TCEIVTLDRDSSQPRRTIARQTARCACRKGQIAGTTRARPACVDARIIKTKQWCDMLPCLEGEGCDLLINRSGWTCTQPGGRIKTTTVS
row,Molecule,binding to FAM19A5 protein (co-immunoprecipitation)
1,B1,able to bind to the FAM19A5 protein
2,B2,able to bind to the FAM19A5 protein
3,B3,able to bind to the FAM19A5 protein
4,B4,able to bind to the FAM19A5 protein
5,B5,able to bind to the FAM19A5 protein
6,B6,able to bind to the FAM19A5 protein
7,B7,able to bind to the FAM19A5 protein
